Assay results taken from PMC9814641, “Microbial rhodoquinone biosynthesis proceeds via an atypical RquA-catalyzed amino transfer from S-adenosyl-L-methionine to ubiquinone” (Communications Chemistry, 2022).
One block for each molecule: values may come before it.

Experiments:
RquA = target: T1, RquA (Rhodospirillum rubrum, UniProt Q2RPC3); experiment: intrinsic tryptophan fluorescence titration, one-site fit; also Michaelis-Menten kinetics (apparent Km […] with UQ3 and Mn2+); assay type: binding
T1 construct: gene Rru_A3227

[1] = target: RquA (TEV-cleaved from MBP-RquA) (R. rubrum); experiment: SEC; calibrated HiLoad 16/60 Superdex 200; TRIS (20 mM), NaCl (200 mM), TCEP (1 mM), 0.1% Brij-35, pH 8.0; mass estimated from the elution volume
[2] = substrate: COC1=C(OC)C(=O)C(C/C=C(\C)CC/C=C(\C)CCC=C(C)C)=C(C)C1=O; experiment: LC-MS enzyme assay of conversion to RQ3, Michaelis-Menten kinetics (apparent Km); assay type: biochemical, Rhodospirillum rubrum; conditions: Mn2+; SAM (co-substrate)

Kd (RquA): 2220 ± 1020 µM
Molecule: C[S+](CC[C@H](N)C(=O)[O-])C[C@H]1O[C@@H](n2cnc3c(N)ncnc32)[C@H](O)[C@@H]1O (stereo partly drawn) [compound 3, S-adenosyl-L-methionine]

stoichiometry N [1]: 2
Molecule: RquA (TEV-cleaved from MBP-RquA) (enzyme)

B1: RquA (Rhodospirillum rubrum ATCC 11170) (protein)
chain: MTKHQGAVRPVGPEESAFPASQSFSETGPVVADPIKPLPAYLQETYTWAYLDPRNVEWLDHEIVVNAILWGNMTRLMATAFKEFEPGQEVLQPACVYGPFSRHLAERLGPEGYLEVHDVAPVQIHHTRRKVEGLPQVTLRRADAADPLDRDFDGVCCFFLLHEVPDHVKSKIVDNMLSAVRPGGKVVFVDYHRYAALHPLRPIMAFVFRTLEPFAWGLCTREISDFASDAGSFTWRKETYFGGLYQKVVAERRA
notes: MBP-RquA
Km [2]: 0.155 ± 0.028 µM
